Target: integrin-associated protein (CD47/IAP) (human (endogenous in primary articular chondrocytes))
Sequence (Q08722 19-323): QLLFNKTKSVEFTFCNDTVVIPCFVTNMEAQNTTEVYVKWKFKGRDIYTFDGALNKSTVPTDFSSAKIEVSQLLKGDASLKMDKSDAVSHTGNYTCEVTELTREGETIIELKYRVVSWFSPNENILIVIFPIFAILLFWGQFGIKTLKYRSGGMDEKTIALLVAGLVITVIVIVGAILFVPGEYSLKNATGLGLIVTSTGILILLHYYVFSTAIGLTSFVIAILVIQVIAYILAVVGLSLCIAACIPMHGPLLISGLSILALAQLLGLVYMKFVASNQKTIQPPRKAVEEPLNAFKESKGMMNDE

- percentage change of membrane potential of normal chondrocytes after 20 min of 0.33 Hz mechanical stimulation in the presence of anti-CD47/IAP antibody Bric 126 (without antibody +21): 2%
- percentage change of membrane potential of osteoarthritic chondrocytes after 20 min of 0.33 Hz mechanical stimulation in the presence of anti-CD47/IAP antibody Bric 126 (without antibody -42): -2%
- percentage change of membrane potential of osteoarthritic chondrocytes after 20 min of 0.33 Hz mechanical stimulation in the presence of anti-TSP-1 antibody (without antibody -42): 3%
Substance: thrombospondin-1 (TSP-1) (from UniProt P07996 19-1170) (natural protein)
